Our source for the % Inhibition of Specific Binding values is US20230212549A1, “COMPOUNDS COMPRISING A […] LIGAND AND USE THEREOF” (priority 2021, published 2023).

Bridge positions count the residues as written; N and C are the ends.

The target in experiment [1] is T1, Potassium Channel hERG (human) (human), Q12809.
T1 chain: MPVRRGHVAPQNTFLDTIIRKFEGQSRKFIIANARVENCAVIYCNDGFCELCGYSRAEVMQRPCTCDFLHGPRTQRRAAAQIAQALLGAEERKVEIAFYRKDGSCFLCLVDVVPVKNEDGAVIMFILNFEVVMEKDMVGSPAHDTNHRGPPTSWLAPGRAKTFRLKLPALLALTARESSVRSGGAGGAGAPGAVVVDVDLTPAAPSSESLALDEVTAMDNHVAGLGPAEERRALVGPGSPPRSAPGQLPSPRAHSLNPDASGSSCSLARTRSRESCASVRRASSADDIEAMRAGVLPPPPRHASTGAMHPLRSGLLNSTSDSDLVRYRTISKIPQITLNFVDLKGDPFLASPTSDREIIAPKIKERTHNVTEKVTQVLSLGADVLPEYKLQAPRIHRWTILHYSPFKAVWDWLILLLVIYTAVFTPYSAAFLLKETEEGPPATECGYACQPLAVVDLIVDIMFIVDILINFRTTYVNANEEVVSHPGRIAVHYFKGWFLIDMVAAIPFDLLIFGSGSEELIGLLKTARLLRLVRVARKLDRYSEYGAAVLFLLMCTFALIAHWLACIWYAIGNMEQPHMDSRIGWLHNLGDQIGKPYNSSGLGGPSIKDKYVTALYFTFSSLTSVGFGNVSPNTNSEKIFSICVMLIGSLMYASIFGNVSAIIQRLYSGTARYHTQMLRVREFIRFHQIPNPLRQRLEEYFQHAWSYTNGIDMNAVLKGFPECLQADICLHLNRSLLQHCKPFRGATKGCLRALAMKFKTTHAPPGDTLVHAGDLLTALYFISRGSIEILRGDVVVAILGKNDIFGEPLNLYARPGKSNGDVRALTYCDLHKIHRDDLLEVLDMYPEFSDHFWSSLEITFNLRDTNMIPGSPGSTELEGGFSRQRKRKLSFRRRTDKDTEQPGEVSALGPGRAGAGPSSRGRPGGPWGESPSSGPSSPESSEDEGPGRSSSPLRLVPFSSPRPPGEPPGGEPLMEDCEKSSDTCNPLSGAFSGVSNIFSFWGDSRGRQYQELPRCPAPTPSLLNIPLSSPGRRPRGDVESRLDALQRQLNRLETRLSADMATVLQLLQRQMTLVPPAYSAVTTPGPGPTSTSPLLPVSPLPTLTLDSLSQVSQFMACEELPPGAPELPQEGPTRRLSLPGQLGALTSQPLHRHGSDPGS
Kind of experiment: radioligand displacement ([3H] Dofetilide), 10 µM. The note with it: remark: other sources report otherwise. On the technique in general: Loss of bound radioactivity is the signal in a displacement assay; it reports binding, not function.

Experiment [2] has as its target 5-HT2A (h) (human), P28223. The experiment in a line: radioligand displacement (agonist radioligand), 10 µM. Particulars: remark: other sources report otherwise.
The target of experiment [3] is T2, delta (DOP) (h) (human), P41143.
T2 chain: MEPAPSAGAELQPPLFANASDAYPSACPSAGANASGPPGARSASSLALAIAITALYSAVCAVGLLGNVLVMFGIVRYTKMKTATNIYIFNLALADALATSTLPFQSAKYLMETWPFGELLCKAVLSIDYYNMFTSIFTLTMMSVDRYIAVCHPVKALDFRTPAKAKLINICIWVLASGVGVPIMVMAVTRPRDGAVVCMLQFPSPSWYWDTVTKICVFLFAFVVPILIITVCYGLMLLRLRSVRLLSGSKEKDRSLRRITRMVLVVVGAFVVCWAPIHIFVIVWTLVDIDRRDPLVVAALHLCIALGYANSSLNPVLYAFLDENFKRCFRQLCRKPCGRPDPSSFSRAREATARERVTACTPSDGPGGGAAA
The description is as above. Particulars: remark: other sources report otherwise.

Experiment [4] deals with BZD (central). The experiment is described as above.
The target of experiment [5] is CB2 (h) (human), P34972. Described as above. Particulars: remark: other sources report otherwise.
Experiment [6] concerns the target T3, M1 (h) (human), P11229.
T3 chain: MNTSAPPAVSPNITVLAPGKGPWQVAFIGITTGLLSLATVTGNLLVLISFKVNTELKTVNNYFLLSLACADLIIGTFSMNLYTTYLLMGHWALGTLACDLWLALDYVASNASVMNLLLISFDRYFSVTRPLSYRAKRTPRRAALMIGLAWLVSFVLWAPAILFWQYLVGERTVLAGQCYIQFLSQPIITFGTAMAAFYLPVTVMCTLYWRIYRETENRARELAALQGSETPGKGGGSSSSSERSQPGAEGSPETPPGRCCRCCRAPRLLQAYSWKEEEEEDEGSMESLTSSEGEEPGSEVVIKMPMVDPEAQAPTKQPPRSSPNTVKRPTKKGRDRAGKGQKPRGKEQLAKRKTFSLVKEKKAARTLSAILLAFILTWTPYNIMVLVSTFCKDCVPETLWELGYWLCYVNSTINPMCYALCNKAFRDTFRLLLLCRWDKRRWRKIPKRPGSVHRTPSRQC
The experiment in a line: radioligand displacement (antagonist radioligand), 10 µM. Particulars: remark: other sources report otherwise.

Experiment [7] concerns the target beta 2 (h) (human), P07550. The description is as above. The note with it: remark: other sources report otherwise.
The target of experiment [8] is T4, 5-HT3 (h) (human), P46098.
T4 chain: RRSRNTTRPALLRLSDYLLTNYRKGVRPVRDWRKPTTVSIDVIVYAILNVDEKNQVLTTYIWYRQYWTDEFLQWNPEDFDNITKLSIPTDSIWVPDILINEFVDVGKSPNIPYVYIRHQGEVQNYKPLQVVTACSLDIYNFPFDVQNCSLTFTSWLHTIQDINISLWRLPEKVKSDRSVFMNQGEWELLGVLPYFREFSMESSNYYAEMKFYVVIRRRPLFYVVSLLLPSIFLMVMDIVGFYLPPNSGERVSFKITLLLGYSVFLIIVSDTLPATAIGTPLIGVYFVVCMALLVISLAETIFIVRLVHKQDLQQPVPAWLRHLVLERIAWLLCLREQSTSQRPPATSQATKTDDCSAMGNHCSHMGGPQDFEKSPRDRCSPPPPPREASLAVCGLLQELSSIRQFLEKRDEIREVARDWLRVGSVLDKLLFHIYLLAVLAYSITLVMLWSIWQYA
The experiment is described as above. The note with it: remark: other sources report otherwise.

Experiment [9] has as its target 5-HT transporter (h) (human), P31645. The description is as above. Particulars: remark: other sources report otherwise.
Experiment [10] addresses norepinephrine transporter (h) (human), P23975. Described as above. The note with it: remark: other sources report otherwise.
Experiment [11] concerns the target KV channel. Described as above.

Sequence of 5-HT2A (h) (human), P28223 (P28223 whole entry): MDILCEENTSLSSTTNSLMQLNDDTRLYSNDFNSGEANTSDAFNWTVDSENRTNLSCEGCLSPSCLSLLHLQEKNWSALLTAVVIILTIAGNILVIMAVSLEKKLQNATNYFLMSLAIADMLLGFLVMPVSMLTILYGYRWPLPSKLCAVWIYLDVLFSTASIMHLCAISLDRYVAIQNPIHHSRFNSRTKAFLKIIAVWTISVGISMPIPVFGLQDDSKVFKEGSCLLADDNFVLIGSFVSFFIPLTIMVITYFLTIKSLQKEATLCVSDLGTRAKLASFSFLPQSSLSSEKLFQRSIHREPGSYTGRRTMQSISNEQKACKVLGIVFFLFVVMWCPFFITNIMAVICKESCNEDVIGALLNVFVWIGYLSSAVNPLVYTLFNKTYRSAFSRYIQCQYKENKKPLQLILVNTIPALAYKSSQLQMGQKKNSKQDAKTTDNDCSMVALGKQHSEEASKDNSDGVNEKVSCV
Sequence of norepinephrine transporter (h) (human), P23975 (P23975 whole entry): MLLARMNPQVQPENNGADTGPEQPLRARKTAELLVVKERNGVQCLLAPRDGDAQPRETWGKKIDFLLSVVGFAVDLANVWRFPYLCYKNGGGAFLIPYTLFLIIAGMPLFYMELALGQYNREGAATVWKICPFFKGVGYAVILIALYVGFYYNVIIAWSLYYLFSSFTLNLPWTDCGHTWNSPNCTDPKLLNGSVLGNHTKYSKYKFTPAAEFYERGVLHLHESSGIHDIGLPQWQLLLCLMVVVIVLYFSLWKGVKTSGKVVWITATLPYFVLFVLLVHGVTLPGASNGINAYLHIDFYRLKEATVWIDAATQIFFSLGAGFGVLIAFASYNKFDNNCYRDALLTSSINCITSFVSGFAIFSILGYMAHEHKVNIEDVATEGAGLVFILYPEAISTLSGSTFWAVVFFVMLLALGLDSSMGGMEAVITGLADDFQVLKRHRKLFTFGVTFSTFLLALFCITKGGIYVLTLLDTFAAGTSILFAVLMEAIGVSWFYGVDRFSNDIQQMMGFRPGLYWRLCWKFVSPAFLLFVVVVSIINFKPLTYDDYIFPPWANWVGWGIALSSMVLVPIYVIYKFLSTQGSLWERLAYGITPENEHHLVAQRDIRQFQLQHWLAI
Sequence of CB2 (h) (human), P34972 (P34972 whole entry): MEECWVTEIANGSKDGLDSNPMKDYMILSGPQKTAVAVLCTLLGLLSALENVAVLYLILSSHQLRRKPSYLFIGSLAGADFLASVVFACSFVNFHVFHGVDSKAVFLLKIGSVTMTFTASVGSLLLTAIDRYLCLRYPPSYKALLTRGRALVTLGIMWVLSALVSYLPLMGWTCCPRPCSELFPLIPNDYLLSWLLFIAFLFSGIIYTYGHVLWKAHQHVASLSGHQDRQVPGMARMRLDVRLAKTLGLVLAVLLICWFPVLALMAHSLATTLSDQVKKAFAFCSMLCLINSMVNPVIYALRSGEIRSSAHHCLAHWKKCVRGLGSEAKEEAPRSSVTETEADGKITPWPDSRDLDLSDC
Sequence of 5-HT transporter (h) (human), P31645 (P31645 whole entry): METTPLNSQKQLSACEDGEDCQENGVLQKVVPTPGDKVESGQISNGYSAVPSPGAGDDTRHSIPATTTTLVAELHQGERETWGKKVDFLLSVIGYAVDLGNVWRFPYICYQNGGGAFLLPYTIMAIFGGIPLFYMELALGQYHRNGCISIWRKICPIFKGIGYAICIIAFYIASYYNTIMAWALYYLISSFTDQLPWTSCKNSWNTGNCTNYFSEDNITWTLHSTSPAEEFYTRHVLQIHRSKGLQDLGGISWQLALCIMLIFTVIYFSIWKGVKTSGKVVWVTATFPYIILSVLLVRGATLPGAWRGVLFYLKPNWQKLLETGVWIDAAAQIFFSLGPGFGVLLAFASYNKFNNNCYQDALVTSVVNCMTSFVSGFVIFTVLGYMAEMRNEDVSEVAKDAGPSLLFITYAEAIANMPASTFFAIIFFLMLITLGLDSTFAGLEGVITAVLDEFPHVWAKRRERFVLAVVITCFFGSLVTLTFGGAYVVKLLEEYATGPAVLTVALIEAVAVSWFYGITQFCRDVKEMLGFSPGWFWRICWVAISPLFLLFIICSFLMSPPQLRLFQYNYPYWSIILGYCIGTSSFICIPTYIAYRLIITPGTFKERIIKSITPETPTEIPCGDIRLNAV

B1: Hex-[Cys(tMeBn(DOTA-AET))-Pro-Pro-Thr-Gln-Phe-Cys]-OH (peptide)
peptide: Hex-CPPTQFC-OH
modifications: bridge 1-7; not fully specified (bridges); printed as Hex-[Cys(tMeBn(DOTA-AET))-Pro-Pro-Thr-Gln-Phe-Cys]-OH
As for B1, the % Inhibition of Specific Binding in experiment [1] was 6%; in experiment [2], 4%; in experiment [3] it was 1%; in experiment [4] it was 5%; in [5], -5%; in experiment [6] it was 8%. Further, the % Inhibition of Specific Binding in experiment [7] was 8%; in experiment [8], 4%; in experiment [9] it was -8%; in experiment [10] it was -5%; in experiment [11], 4%.

B2: Hex-[Cys(tMeBn(DOTA-PP))-Pro-Pro-Thr-Gln-Phe-Cys]-Asp-NH2 (peptide)
peptide: Hex-CPPTQFCD-NH2
modifications: bridge 1-7; not fully specified (bridges); printed as Hex-[Cys(tMeBn(DOTA-PP))-Pro-Pro-Thr-Gln-Phe-Cys]-Asp-NH2
For the molecule B2, the % Inhibition of Specific Binding in experiment [1] was 2%; in experiment [2], -2%; in experiment [3], 0%; in experiment [4] it was -9%; in [5], 2%; in experiment [6] it was 6%. For the same molecule, the % Inhibition of Specific Binding is 4% in experiment [7]; 2% in experiment [8]; -3% in experiment [9]; -8% in experiment [10]; -5% in [11].
